Laboratory results as given in patent publication US20230393135A1.

Experiments:
[1] = molecular target: SARS-CoV-2 S protein trimer with the K417N/E484K/N501Y mutations (present in the B.1.351 variant) (SARS-CoV-2) (UniProt P0DTC2)
[2] = molecular target: SARS-CoV-2 S protein trimer with the Δ69-70 Y453F mutations (present in the mink variant) (SARS-CoV-2) (UniProt P0DTC2)

Q: For REGN10933 neutralizing antibody, which fold loss in IC80 activity [1] is on record?
A: Its fold loss in IC80 activity is 61 fold.

Q: And the fold loss in IC80 activity [2]?
A: The fold loss in IC80 activity was 67 fold.
